{
  "source": "patent US10925971B2",
  "about": "“Methods of treating PRLR positive breast cancer” (Regeneron Pharmaceuticals, Inc., priority 2016, dated 2021)",
  "molecules": {"B1": {"name": "H1H6958N2-DM1: anti-PRLR antibody H1H6958N2 conjugated to the maytansinoid DM1 through an SMCC linker (conjugate)", "VH": "QVQLVESGGGVVQPGRSLRLSCGASGFTFRNYGMQWVRQGPGKGLEWVTLISFDGNDKYYADSVKGRFTISRDNSKNTLFLQMNSLRTEDTAVYYCARGGDFDYWGQGTLVTVSS", "VL": "DIQMTQSPSSLSASVGDRVTITCRASQDIRKDLGWYQQKPGKAPKRLIYAASSLHSGVPSRFSGSGSGTEFTLTISSLQPEDFATYYCLQHNSYPMYTFGQGTKLEIK"}},
  "key": {"[1]": {"system": "PRLR expressing cells", "assay": "In vitro cell viability (cell kill) assay, several cell backgrounds", "assay_type": "cell-based, human", "settings": "PC3/hPRLR and MCF7/hPRLR cell lines", "description": "PRLR-overexpressing cells, including HEK293, PC3, MCF7 and NCI-N87, were generated to assess the ability of anti-PRLR conjugated antibodies to reduce cell viability. For comparative purposes, PC3 and T47D cells with overexpressed ErbB2 were also generated, as well as an MCF7 cell line over-expressing both hPRLR and hErbB2. Briefly, Lipofectamine® 2000-mediated transfection methodology was utilized to generate HEK293 cells expressing human PRLR (HEK293/hPRLR) or human ErbB2 (HEK293/hErbB2). Lipofectamine LTX with Plus Reagent was used to generate PC3 cells expressing human PRLR (PC3/hPRLR) or human ErbB2 (PC3/hErbB2). Lentiviral-mediated transduction was utilized to generate MCF7 cells expressing human PRLR (MCF7/hPRLR), NCI-N87 cells expressing human PRLR (NCI-N87/hPRLR), T47D cells over-expressing human ErbB2 (T47D/hErbB2), and MCF7 cells expressing both human PRLR and human ErbB2 (MCF7/hPRLR/hErbB2). All lines were selected for at least two weeks in complete growth media plus appropriate selection reagents. Stably expressing populations were enriched for PRLR expression via FACS using the anti PRLR antibody Control I.\nNext, the ability of anti-PRLR-DM1 antibody-drug conjugates (i.e., anti-PRLR antibodies conjugated to DM1 via a non-cleavable linker [SMCC]) to reduce cell viability was determined using in vitro cell based assays. Cells were seeded in PDL-coated 96 well plates at 1500 to 10000 cells per well in complete growth media and allowed to grow overnight. For cell viability curves, ADCs or free DM1 (as the methyl disulfide derivative DM1-SMe) were added to the cells at final concentrations ranging from 500 nM to 5 pM and incubated for 3 days. The 293, PC3 and T47D cells were incubated with CCK8 (Dojindo, Rockville, Md.) for the final 1-3 hours and the absorbance at 450 nm (OD450) was determined on a Flexstation3 (Molecular Devices, Sunnyvale, Calif.). MCF7 cells were treated with Hoechst 33342 nuclear stain while being fixed with 4% formaldehyde. Images were acquired on the ImageXpress micro XL (Molecular Devices, Sunnyvale, Calif.) and nuclear counts were determined via Columbus image analysis software (Perkin Elmer, Shelton, Conn.). Background OD450 values (PC3, 293, and T47D) or nuclear counts (MCF7) from digitonin (40 nM) treated cells was subtracted from all wells and viability was expressed as a percentage of the untreated controls. IC50 values were determined from a four-parameter logistic equation over a 10-point response curve (GraphPad Prism)."}, "[2]": {"system": "HEK293 (293) cells", "assay": "In vitro cell viability (cell kill) assay, CCK8", "assay_type": "cell-based, human", "how_it_was_run": "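Anti-PRLR–DM1 ADCs (non-cleavable SMCC linker) or free DM1-SMe, 500 nM to 5 pM for 3 days on parental or hPRLR-overexpressing lines. HEK293: CCK8 OD450; MCF7: Hoechst nuclear counts by imaging.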"}, "[3]": {"system": "PC3 cells", "assay": "In vitro cell viability (cell kill) assay, CCK8", "assay_type": "cell-based, human", "settings": "Table 18", "how_it_was_run": "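Readout: CCK8 absorbance at 450 nm (293, PC3) or Hoechst-stained nuclear counts after formaldehyde fixation (MCF7). hPRLR-expressing lines, seeded overnight, got DM1 ADCs (non-cleavable SMCC linker) or DM1-SMe, 500 nM–5 pM, 3 days. Viability as % untreated after digitonin background; IC50 by four-parameter logistic.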"}, "[4]": {"system": "T47D cells", "assay": "In vitro cell viability (cell kill) assay, CCK8", "assay_type": "cell-based, human", "settings": "T47D cells (PRLR 12× above background), 3 days; read-out: IC50, growth inhibition / cell viability", "how_it_was_run": "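T47D cells grown overnight, then exposed for 3 days to anti-PRLR-DM1 ADCs (SMCC non-cleavable linker) or DM1-SMe at 500 nM to 5 pM.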"}, "[5]": {"system": "T47DvII tumors", "assay": "Phospho-histone-H3 (pHH3) IHC in treated tumors, mitotic arrest", "assay_type": "in vivo, mice", "description": "In order to validate the activity of DM1 on microtubule activity, the induction of mitotic arrest following treatment of T47DvII tumors with H1H6958N2-DM1 in vivo was assessed by phospho-histone-H3 (pHH3) IHC. Mice were implanted with T47DvII cells and tumors were grown for 15 days where mice were randomized based on tumor volume and dosed intravenously with either vehicle, H1H6958N2-DM1 at 5 or 15 mg/kg or Control ADC at 15 mg/kg (N=4-5). At 24, 48 or 72 hours post-treatment, mice were euthanized and tumors processed as FFPE samples for IHC analysis. Tumor sections were then stained with anti-phospho Histone H3 (pHH3) antibody (clone: Ser10, Cell Signaling Technology #9701) as a measure of mitotic cells. Images were scanned on an Aperio XT Scan scope at 40× (Leica Systems). PHH3 positive nuclear signals were imaged and quantified with the Halo CytoNuclear Count algorithm (Halo, Indica Labs). The percent of positive cells in each tumor was quantified for each group and an average calculated for each treatment condition."}, "[6]": {"system": "TM00107 PDX tumors", "assay": "TM00107 patient derived xenograft (PDX) breast cancer model, tumor volume", "assay_type": "in vivo, NOD SCID gamma (NSG) mice", "description": "Efficacy of H1H6958N2-DM1 was also assessed in a patient derived xenograft (PDX) model of breast cancer that may better represent the response in patients. NOD SCID gamma (NSG) mice bearing tumor fragments of the TM00107 PDX breast cancer tumor were sourced from The Jackson Laboratories. The TM00107 PDX model was derived from an ER+/−/PR−/HER2− metastatic breast adenocarcinoma. PRLR expression was confirmed by microarray analysis and immunohistochemistry on tumor sample slides provided by The Jackson Laboratory (data not shown). When tumors were an average volume of ˜400-600 mm^3 (21 days post implantation), mice were randomized into treatment groups (n=7 mice/group) and were administered H1H6958N2-DM1, control ADC, or vehicle control by intravenous injection once weekly for a total of 4 weeks. A separate treatment group was administered paclitaxel by intravenous injection every 4 days for a total of 4 doses."}},
  "data": [
    {"molecule": "B1", "values": [
      {"measurement": "cell killing, non-cleavable DM1 ADCs versus cleavable MMAE ADCs", "setting": "[1]", "value": "nearly equivalent cell killing"},
      {"measurement": "% Kill", "setting": "[2]; 293, Table 11, 3 days", "value": 98, "unit": "%"},
      {"measurement": "IC50", "setting": "[2]; 293, Table 11, 3 days", "value": 0.075, "unit": "µM"},
      {"measurement": "% Kill", "setting": "[2]; HEK293, Table 13, + 15 nM PRL", "value": 86, "unit": "%"},
      {"measurement": "IC50", "setting": "[2]; HEK293, Table 13, + 15 nM PRL", "value": 0.11, "unit": "µM"},
      {"measurement": "% Kill", "setting": "[3]", "value": 81, "unit": "%"},
      {"measurement": "IC50", "setting": "[3]", "value": 0.11, "unit": "µM"},
      {"measurement": "IC50", "setting": "[4]", "value": 0.0013, "unit": "µM"},
      {"measurement": "pHH3 immunoreactivity in tumors", "setting": "[5]; 5 mg/kg intravenously, relative to vehicle", "value": "significant increase relative to vehicle treated tumors"},
      {"measurement": "pHH3 levels in tumors", "setting": "[5]; 15 mg/kg, data not shown", "value": "further increase in pHH3 levels"},
      {"measurement": "time of peak pHH3 levels post treatment", "setting": "[5]; sampled at 24, 48 or 72 hours", "value": 48, "unit": "hours"},
      {"measurement": "average tumor volume", "setting": "[6]; 10 mg/kg once weekly, day 30, compared to vehicle", "value": "no significant difference in average tumor volume"},
      {"measurement": "average tumor volumes", "setting": "[6]; 20 mg/kg once weekly, day 30, compared to 20 mg/kg control ADC", "value": "moderate but significant (p<0.01) decrease"}
    ]}
  ]
}
